Laboratory results as given in article PMC2171039.

How the values were obtained:
[1] = target: Vps32 (Aspergillus nidulans); experiment: two-hybrid
[2] = target: GST::PalC (Aspergillus nidulans); experiment: pull-down

Chain of Vps32 (Aspergillus nidulans) (C8V487 whole entry): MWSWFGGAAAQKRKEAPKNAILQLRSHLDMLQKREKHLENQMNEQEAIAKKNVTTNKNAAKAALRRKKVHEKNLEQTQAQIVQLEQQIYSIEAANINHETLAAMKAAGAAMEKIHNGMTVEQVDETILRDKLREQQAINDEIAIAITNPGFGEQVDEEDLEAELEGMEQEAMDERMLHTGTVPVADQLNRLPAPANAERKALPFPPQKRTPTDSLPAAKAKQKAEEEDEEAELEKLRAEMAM

Substance	β-galactosidase activity, % of the wild type (% of the wild type) [1]	stoichiometry N (mol of zz-Vps32 per mole of GST::PalC) [2]
PalC Arg442His (natural protein)	11	
PalC Arg442Ala (natural protein)	18	
zz-Vps32 (natural protein)		0.9
